The record followed here is US20070293656A1, “COLLAGEN BINDING PEPTIDES” (Epix Pharmaceuticals, Inc., priority 2005, published 2007).

Bridge positions count the residues as written; N and C are the ends. Square brackets hold non-standard residues; d marks the D form. Primed or numbered codes have the meaning given here. Side chains are listed from the residue outwards. Ends that are not written are not given here. * marks the point of attachment. Glu‑DTPA‑Gd = N-terminal Glu-DTPA-Gd chelate (gadolinium DTPA complex on glutamic acid); Tyr(3-I) = N[C@@H](Cc1ccc(O)c(I)c1)C(=O)O; Glu‑DTPA‑Gd‑PEG(2O) = not defined here; Gd^T = not defined here; Gd^T″ = GdDTPA-thiourea; Cbz = O=C(OCc1ccccc1)*; AEEA = NCCOCCOCC(=O)O

In test [1] the target is T1, human collagen type I (Homo sapiens, UniProt P02452+P08123).
T1 construct: Acid soluble human collagen extracted from placenta; purchased Sigma C7774 (lot #083K375); host or cells: human placenta
T1 sequence (P02452 162-1218 limits assumed): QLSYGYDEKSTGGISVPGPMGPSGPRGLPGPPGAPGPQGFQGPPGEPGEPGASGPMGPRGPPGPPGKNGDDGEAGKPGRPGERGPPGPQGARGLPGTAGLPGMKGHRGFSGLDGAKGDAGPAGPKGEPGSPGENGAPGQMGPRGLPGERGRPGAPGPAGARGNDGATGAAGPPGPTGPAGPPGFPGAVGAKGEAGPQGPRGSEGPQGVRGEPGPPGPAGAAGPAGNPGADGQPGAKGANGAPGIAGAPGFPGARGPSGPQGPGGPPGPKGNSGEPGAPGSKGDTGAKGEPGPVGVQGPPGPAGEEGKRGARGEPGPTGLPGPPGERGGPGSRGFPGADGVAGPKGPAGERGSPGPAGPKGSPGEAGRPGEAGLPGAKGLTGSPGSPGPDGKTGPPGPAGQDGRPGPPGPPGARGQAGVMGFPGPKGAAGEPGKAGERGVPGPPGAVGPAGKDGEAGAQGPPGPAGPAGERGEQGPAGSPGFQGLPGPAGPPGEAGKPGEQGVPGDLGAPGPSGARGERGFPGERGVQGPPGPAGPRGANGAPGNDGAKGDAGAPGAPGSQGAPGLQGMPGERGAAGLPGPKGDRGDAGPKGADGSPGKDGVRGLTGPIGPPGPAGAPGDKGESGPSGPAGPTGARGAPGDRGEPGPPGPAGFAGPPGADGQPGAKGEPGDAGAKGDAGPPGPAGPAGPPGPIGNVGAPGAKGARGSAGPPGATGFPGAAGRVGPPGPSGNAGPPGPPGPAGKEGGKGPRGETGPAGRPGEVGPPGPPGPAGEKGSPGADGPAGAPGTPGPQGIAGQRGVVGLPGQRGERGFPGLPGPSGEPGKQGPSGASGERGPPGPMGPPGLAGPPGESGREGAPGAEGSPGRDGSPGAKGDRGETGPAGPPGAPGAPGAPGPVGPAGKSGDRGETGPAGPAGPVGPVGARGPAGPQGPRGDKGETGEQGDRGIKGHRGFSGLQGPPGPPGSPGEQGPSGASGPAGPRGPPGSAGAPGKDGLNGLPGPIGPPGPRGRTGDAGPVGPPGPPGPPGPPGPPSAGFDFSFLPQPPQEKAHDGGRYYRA
T1 sequence (P08123 80-1119 limits assumed): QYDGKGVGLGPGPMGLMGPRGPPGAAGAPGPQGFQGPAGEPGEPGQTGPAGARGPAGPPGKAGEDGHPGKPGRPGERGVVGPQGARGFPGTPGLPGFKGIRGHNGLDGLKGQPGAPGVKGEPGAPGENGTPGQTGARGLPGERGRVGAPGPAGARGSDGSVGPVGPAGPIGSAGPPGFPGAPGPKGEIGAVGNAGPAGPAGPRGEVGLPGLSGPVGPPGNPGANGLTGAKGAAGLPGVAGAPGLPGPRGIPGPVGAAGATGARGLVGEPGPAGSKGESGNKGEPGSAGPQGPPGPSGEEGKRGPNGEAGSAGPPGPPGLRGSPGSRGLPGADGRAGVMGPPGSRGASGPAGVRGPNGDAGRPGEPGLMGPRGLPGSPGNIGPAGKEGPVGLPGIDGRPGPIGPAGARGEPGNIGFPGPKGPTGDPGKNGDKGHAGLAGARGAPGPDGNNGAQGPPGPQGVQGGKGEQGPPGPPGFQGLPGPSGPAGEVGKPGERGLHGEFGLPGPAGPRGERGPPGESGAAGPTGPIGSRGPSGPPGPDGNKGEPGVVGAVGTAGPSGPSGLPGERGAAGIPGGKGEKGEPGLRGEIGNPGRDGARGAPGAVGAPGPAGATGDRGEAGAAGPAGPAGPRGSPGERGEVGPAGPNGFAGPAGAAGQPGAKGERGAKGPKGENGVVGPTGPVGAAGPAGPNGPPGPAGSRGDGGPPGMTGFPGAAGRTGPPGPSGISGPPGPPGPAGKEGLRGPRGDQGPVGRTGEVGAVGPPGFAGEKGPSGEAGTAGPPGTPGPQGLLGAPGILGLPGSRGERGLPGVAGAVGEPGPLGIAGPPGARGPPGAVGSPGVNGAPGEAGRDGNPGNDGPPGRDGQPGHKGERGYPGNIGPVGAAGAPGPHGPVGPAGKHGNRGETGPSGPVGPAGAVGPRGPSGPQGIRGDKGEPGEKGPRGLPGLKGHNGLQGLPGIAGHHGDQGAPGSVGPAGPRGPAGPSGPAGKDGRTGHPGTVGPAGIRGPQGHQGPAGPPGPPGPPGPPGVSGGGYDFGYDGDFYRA
Kind of test: Dried collagen assay (DCA): percent binding to dried human collagen. The settings on record: 5 μM peptide in PBS, pH 7.4, 2 hours at room temperature. The protocol:
Acid soluble human collagen extracted from placenta (Sigma, cat #C7774, lot #083K375) is dissolved in 15 mM HCl (3.5 mg/ml) by vortexing and gently shaking for 3-4 hours at 4° C. The acid soluble collagen is […] against PBS, pH 7.4 (three buffer exchanges are used). The […] protein concentration is determined by the BCA method (Pierce, Cat #23225) using bovine collagen (Vitrogen, cat #FXP-019) as a reference standard. Percent gelation (fibril formation) of the collagen is determined by incubating 10 μM collagen (3.3 mg/ml) at 37° C. for 6 hours. A typical percent gelation is 60%.
(§1) An additional 90 μL is reserved in a HPLC glass vial as a measure of the total concentration.

The target of test [2] is human collagen type I (acid soluble, extracted from placenta, Sigma C7774) (human) (UniProt P02452). Nature of the test: dried collagen assay.
Chain of human collagen type I (acid soluble, extracted from placenta, Sigma C7774) (human) (P02452 162-1218 limits assumed, chain 1 of 2): as the sequence (P02452 162-1218 limits assumed) above
Chain of human collagen type I (acid soluble, extracted from placenta, Sigma C7774) (human) (P08123 80-1119 limits assumed, chain 2 of 2, further chain): as the sequence (P08123 80-1119 limits assumed) above
Test [3] concerns the target rat collagen (acid soluble, type I, rat tail, Upstate 08-115) (rat) (UniProt P02454). Nature of the test: dried collagen assay.
Test [4] concerns the target T2, human collagen type I (acid soluble, extracted from placenta, Sigma C7774) (human, UniProt P02452 162-1218; P08123 80-1119).
T2 construct: gelled and dried as a fibril film in the assay; also called dried human collagen; h-Collagen
Kind of test: dried collagen assay. The protocol:
as §1

Chain of rat collagen (acid soluble, type I, rat tail, Upstate 08-115) (rat) (P02454 152-1207 limits assumed, chain 1 of 2): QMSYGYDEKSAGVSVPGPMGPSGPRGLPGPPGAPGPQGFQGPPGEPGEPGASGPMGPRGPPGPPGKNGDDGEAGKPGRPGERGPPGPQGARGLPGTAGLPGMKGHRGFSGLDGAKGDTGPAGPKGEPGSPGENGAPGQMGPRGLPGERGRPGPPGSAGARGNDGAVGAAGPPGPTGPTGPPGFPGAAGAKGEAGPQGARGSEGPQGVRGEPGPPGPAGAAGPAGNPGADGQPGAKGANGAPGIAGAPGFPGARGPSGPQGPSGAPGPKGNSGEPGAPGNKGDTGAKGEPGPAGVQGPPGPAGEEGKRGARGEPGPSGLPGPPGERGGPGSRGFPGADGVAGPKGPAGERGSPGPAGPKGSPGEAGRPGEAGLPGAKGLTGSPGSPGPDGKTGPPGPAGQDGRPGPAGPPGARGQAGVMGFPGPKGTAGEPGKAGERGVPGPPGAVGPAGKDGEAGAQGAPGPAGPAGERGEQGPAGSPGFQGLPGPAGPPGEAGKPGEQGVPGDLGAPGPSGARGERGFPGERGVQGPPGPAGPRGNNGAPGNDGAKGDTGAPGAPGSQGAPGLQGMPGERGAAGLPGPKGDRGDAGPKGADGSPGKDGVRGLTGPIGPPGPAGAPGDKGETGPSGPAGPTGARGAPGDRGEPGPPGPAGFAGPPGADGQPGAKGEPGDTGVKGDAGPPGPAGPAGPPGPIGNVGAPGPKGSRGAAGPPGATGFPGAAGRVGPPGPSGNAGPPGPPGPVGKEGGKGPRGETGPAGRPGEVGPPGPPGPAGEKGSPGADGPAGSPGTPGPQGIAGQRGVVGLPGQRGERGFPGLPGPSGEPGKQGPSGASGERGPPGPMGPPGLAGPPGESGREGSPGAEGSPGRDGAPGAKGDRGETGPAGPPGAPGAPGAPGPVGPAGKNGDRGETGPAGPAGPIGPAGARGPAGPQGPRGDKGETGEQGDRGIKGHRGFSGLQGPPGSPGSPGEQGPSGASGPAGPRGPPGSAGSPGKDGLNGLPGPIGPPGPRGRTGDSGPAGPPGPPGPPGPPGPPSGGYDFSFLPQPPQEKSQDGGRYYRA
Chain of rat collagen (acid soluble, type I, rat tail, Upstate 08-115) (rat) (P02466 86-1125 limits assumed, chain 2 of 2, further chain): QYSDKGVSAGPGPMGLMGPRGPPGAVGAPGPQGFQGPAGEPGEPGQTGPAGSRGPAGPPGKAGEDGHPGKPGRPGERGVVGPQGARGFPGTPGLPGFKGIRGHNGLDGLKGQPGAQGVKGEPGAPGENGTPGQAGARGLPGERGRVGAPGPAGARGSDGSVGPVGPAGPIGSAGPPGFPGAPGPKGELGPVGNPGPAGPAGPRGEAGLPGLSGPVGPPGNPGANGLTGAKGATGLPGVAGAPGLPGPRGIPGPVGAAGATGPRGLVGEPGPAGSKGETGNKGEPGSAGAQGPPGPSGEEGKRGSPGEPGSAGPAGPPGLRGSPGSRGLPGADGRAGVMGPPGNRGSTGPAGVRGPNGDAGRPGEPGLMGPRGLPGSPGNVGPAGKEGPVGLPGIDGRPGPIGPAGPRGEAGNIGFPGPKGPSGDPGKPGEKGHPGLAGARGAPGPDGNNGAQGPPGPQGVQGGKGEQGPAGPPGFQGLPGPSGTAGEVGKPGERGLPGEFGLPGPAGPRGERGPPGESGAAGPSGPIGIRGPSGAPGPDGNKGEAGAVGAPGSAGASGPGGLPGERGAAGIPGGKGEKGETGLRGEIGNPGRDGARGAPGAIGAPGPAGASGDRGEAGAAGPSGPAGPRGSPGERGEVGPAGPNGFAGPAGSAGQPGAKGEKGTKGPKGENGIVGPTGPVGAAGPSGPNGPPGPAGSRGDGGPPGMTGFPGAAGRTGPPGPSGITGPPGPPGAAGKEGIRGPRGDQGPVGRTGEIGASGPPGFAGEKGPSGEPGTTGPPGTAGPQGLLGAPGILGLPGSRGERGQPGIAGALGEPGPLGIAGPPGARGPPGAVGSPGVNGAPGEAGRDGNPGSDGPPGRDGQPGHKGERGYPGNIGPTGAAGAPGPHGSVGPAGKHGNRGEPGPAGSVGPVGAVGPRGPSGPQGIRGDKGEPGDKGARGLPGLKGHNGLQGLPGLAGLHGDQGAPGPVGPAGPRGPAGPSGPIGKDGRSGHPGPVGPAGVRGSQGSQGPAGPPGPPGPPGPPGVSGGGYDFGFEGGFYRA
T2 sequence (P02452 162-1218 limits assumed, chain 1 of 2): as the sequence (P02452 162-1218 limits assumed) above
T2 sequence (P08123 80-1119 limits assumed, chain 2 of 2): as the sequence (P08123 80-1119 limits assumed) above

Regarding 37 (LWNCHGTDANWKCVLN) [compound 37], in test [1], the “Dried Human Collagen Binding” value was determined as 7%.

As for 39 (GWQCSGDASVWNCDWI) [compound 39], the “Dried Human Collagen Binding” value in test [1] came out at 6%.

On to GWQCSGDASVWNCDWI (disulfide 4-13 (inferred)) [SEQ ID NO: 39], for which, in test [2], the % bound stood at 6%.

On to GQWHCTTLFPHHYCLYG (not fully specified; Gd^T-GQWHCTTLFPHHyCLYG) [Comp ID 907], for which the % bound was determined as 1% in test [3] and 6% in test [2].

As for GQWHCTTDFPHHYCLYG (not fully specified; Gd^T-GQWHCTTD-F(3,4-OMe)-PHHYCLYG) [Comp ID 893], the values for the % bound in test [3] and in test [2] were 2% and 4%, respectively.

Consider {Gd^T″}-GQWTCSGDEYAWHCNY[dE] (disulfide 5-14 (inferred)) [Comp ID 832], for which the values for the % bound in test [3] and in test [2] were 4% and 12%, respectively.

GWQCQGTDSLDWKCLYM (disulfide 4-14 (inferred)) [SEQ ID NO: 77] had a % bound in test [2] of 12%.

GQWHCTTRFPHHFCLYG (not fully specified; Gd^T-GQWHCTTRFPHHfCLYG) [Comp ID 901]: the % bound in test [3] and in test [2] was 2% each time.

B1: Comp ID 836 (peptide)
peptide: {Gd^T}-DWTCS[dS]DEYTWHCNYE
modifications: disulfide 4-13 (inferred); not fully specified (C-terminus); printed as Gd^T-DWTCSsDEYTWHCNYE; reading uncertain
Turning to B1, the % bound in test [3] came to 8%; in test [2], 13%.

In test [2], GWSCHSMDMQWHCDFS (disulfide 4-13 (inferred)) [SEQ ID NO: 67] returned a % bound of 5%.

TWACDLDEYGGWQCYTG (disulfide 4-14 (inferred)) [SEQ ID NO: 78] had a % bound in test [2] of 8%.

Take ERNCVLNDFRWTCGGD (disulfide 4-13 (inferred)) [SEQ ID NO: 75]: in test [2], the % bound is 10%.

Turning to GQWHCTTDFPHHYCLYG (not fully specified; Gd^T-GQWHCTTD-F(4-CN)-PHHYCLYG) [Comp ID 883], the % bound was 2% in test [3] and 8% in test [2].

GWSCHGDAADWPCQWS (disulfide 4-13 (inferred)) [SEQ ID NO: 38] yielded a % bound in test [2] of 6%.

Molecule DWTCSGDEYRWHCNYE (not fully specified; Gd^T-DWTCSGDEYRWHCNYE) [Comp ID 845] gave a % bound in test [3] of 10%.

As to GQWHCTTRFPHHXCLYG (not fully specified; Gd^T-GQWHCTTRFPHH-bip-CLYG) [Comp ID 903], the % bound in test [3] was 5%; in test [2] it was 3%.

Molecule {Glu‑DTPA‑Gd}-GGDWTCVGDHKTWKCNFH-NH2 (disulfide 6-15 (inferred)) [Compound ID 1023] displayed a % bound in test [3] of 12%.

Regarding YHACYQAGCYIW (disulfide 4-9 (inferred)) [SEQ ID NO: 107], the % bound in test [3] is 6%; in test [4], 9%.

For DWTCSGDEYTWHCNYE (not fully specified; Gd^T-DWTCSGDEYTWHCNYE) [Comp ID 848], the % bound in test [3] came to 9%.

As for GQWHCTTRFPHHTCLYG (not fully specified; Gd^T-GQWHCTTRFPHHtCLYG) [Comp ID 905], the % bound in test [2] is 6%.

Take {Gd^T″}-GAWTCSGDEYTWHCNYE (disulfide 5-14 (inferred)) [Comp ID 830]: the figures for the % bound in test [3] and in test [2] were 11% and 26%, respectively.

Molecule {Glu‑DTPA‑Gd}-WWGCRQGTGEHWSHCMWF-{AEEA-Glu‑DTPA‑Gd} (cysteine pairing not given here; also: Gd chelated by DTPA at each end) [SEQ ID NO: 195] displayed a % bound in test [3] of 9%.

For the molecule {Gd^T}-DWTCS[dL]DEYTWHCNYE (disulfide 4-13 (inferred); not fully specified (C-terminus); reading uncertain) [Comp ID 847], the % bound worked out at 7% in test [3] and 16% in test [2].

In turn, GQWTCSGDEYTWHCAYE (not fully specified; Gd^T-GQWTCSGDEYTWHCAYE) [Comp ID 839] yielded a % bound in test [3] of 11%.

B2: Comp ID 835 (peptide)
peptide: {Gd^T}-DWTCS[dA]DEYTWHCNYE
modifications: disulfide 4-13 (inferred); not fully specified (C-terminus); printed as Gd^T-DWTCSaDEYTWHCNYE; reading uncertain
Turning to B2, the % bound in test [3] came to 9%; in test [2] it was 17%.

Molecule SWYCNNGSYGQWHCEHR (disulfide 4-14 (inferred)) [SEQ ID NO: 80] returned a % bound in test [2] of 6%.

With LWNCHGTDANWKCVLN (disulfide 4-13 (inferred)) [SEQ ID NO: 37], the % bound in test [2] was 7%.

On to KWECVHTKGEWYCETK (disulfide 4-13 (inferred)) [SEQ ID NO: 65], for which the % bound in test [2] was 7%.

In the case of SWSCGGDHNAWKCQYS (disulfide 4-13 (inferred)) [SEQ ID NO: 36], in test [2], the % bound is 7%.

Take YHACYQAGCYIY (disulfide 4-9 (inferred)) [SEQ ID NO: 108]: the values for the % bound in test [3] and in test [2] were 12% and 5%, respectively.

In the case of {Gd^T″}-DWTCSGDEYYWHCNYE (disulfide 4-13 (inferred)) [Comp ID 834], the % bound came to 9% in test [3] and 22% in test [2].

The molecule {Gd^T}-DWTCSGDE[Tyr(3-I)]TWHCNYE (disulfide 4-13 (inferred); not fully specified (C-terminus); reading uncertain) [Comp ID 846] displayed a % bound in test [3] of 9%.

For SWHCFLENHHWMCSDH (disulfide 4-13 (inferred)) [SEQ ID NO: 68], the % bound in test [2] was 5%.

As to GQWHCTTRFPHHXCLYG (not fully specified; Gd^T-GQWHCTTRFPHH-1-nal-CLYG) [Comp ID 904], in test [3], the % bound is 3%.

B3: Comp ID 966 (peptide)
peptide: {Gd^T″}-GK([Gly-Gd^T″])WHCTTLFPHHVCLYG
modifications: disulfide 5-14 (inferred); not fully specified (C-terminus); printed as Gd^T-G-K(G.Gd^T)-WHCTTLFPHHVCLYG
Molecule B3 came in with a % bound in test [3] of 8%.

{Glu‑DTPA‑Gd‑PEG(2O)}-GQWTCSGDEYTWHCNY[dE]-NH2 (disulfide 5-14 (inferred); reading uncertain) [Compound ID 1026] returned a % bound in test [3] of 5%.

For the molecule DWTCSGDEYTWYCNYE (not fully specified; Gd^T-DWTCSGDEYTWYCNYE) [Comp ID 842], the figures for the % bound in test [3] and in test [2] were 9% and 23%, respectively.

Molecule RWSCVLDADGWVCSDN (disulfide 4-13 (inferred)) [SEQ ID NO: 66] had a % bound in test [2] of 6%.

For the molecule GQWACSGDEYTWHCNYE (not fully specified; Gd^T-GQWACSGDEYTWHCNYE) [Comp ID 840], the % bound in test [3] was 3%; in test [2], 15%.

In turn, FWTCELDFRQSWYCYDK (disulfide 4-14 (inferred)) [SEQ ID NO: 79] returned a % bound in test [2] of 8%.

Consider GQWHCTTRFPHHRCLYG (not fully specified; Gd^T-GQWHCTTRFPHHrCLYG) [Comp ID 902], for which the % bound in test [2] came out at 7%.

For {Gd^T″}-GQWTCSGDEYTWACNYE (disulfide 5-14 (inferred)) [Comp ID 833], the % bound in test [3] came out at 4%; in test [2], 13%.

B4: Comp ID 940 (peptide)
peptide: Cbz-GQWHCTK(Gd^T″)RFPHHYCLYG
modifications: disulfide 5-14 (inferred); not fully specified (C-terminus); printed as cbz-GQWHCT-K(Gd^T)-RFPHHYCLYG
B4 returned a % bound in test [3] of 8%.
